Columns and labels:
[1] = target: human FcγRIIA_131H (CD32a) extracellular domain (human) (UniProt P12318); experiment: SPR (Biacore T100), antibody captured on Protein A, FcγR ECD as analyte, steady state, 25 C
[2] = target: human FcγRIIA_131R (CD32a) extracellular domain (human) (UniProt P12318); experiment: as above
[3] = target: human FcγRIIIA_F158 (CD16a) extracellular domain (human) (UniProt P08637); experiment: as above
[4] = target: human FcγRIIb (CD32b) extracellular domain (human) (UniProt P31994); experiment: as above
[5] = target: human FcγRI (CD64) extracellular domain (human) (UniProt P12314); experiment: SPR (Biacore T100), antibody captured on Protein A, FcγR ECD as analyte, 25 C
human FcγRI (CD64) extracellular domain (human), sequence (P12314 16-292): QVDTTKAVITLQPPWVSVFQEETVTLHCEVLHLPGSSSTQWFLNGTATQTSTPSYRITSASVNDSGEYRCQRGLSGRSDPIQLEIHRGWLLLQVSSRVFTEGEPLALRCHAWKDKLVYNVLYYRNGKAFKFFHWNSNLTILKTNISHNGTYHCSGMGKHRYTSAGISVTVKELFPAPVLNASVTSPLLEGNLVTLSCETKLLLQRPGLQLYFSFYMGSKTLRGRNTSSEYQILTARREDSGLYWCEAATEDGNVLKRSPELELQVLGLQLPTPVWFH

human FcγRIIA_131R (CD32a) extracellular domain (human), sequence (P12318 34-217 H167R): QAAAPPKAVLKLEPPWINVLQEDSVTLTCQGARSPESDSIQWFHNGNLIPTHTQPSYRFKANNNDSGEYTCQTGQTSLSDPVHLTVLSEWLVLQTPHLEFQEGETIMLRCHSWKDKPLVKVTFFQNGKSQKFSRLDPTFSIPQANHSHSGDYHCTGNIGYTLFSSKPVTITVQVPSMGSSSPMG
human FcγRIIb (CD32b) extracellular domain (human), sequence (P31994 43-217): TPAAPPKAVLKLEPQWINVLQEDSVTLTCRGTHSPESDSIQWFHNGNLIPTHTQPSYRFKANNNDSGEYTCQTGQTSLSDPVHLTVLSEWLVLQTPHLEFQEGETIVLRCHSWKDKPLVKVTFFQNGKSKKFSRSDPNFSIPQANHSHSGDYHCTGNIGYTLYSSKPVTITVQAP
human FcγRIIA_131H (CD32a) extracellular domain (human), sequence (P12318 34-217): as the sequence (P12318 34-217 H167R) above, with R134H counted along it
human FcγRIIIA_F158 (CD16a) extracellular domain (human), sequence (P08637 17-208): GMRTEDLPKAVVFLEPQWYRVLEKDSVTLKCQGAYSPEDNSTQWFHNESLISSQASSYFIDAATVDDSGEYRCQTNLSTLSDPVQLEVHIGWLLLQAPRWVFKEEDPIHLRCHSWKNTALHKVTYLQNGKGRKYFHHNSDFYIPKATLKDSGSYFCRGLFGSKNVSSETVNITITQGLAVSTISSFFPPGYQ

Human WT IgG1 Fc (antibody) was tested, and the Kd [1] was 500 nM, the Kd [2] was 500 nM and the Kd [3] was 900 nM. The Kd [4] was 1900 nM and the Kd [5] was 0.0426 nM.

— patent publication US20230111363A1
